In this series the test system is Escherichia coli TOP10. The series is described as follows: shrunken log2 fold change of peptide-encoding DNA abundance (4.5 h post-induction vs induction); higher = less antimicrobial activity (less host growth inhibition). The conditions noted are these: time post-induction: 4.5 h; library: site-saturation at positions 5, 18, 19, 20.
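Also: peptides expressed intracellularly from a pBAD plasmid library in pooled LB shake-flask culture, induced with 0.3% L-arabinose, DNA abundance read by NGS, three biological replicates, DESeq2 with apeglm shrinkage.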

In the case of RRIRGRPPRLPRPRPRPKRFPRP, the “shrunken log2 fold change” value is -0.0242.
With RRIRGRPPRLPRPRPRPKRDPRP, the “shrunken log2 fold change” value amounted to 0.738.
As for RRIRDRPPRLPRPRPRPHWQPRP, the “shrunken log2 fold change” value is -0.149.
As for RRIRNRPPRLPRPRPRPKNKPRP, the “shrunken log2 fold change” value was -0.0876.
In the case of RRIRYRPPRLPRPRPRPGAVPRP, the “shrunken log2 fold change” value worked out at 0.929.
With RRIRVRPPRLPRPRPRPDGVPRP the figure was -0.0176.
Take RRIRGRPPRLPRPRPRPYLQPRP: the “shrunken log2 fold change” value is -0.182.
With RRIRIRPPRLPRPRPRPWWCPRP, the “shrunken log2 fold change” value was -0.196.
The value for RRIRRRPPRLPRPRPRPGHKPRP was 0.0528; that for RRIRWRPPRLPRPRPRPKRYPRP was 0.0352; that for RRIRGRPPRLPRPRPRPYQLPRP was 0.147.
Take RRIRCRPPRLPRPRPRPNWYPRP: the “shrunken log2 fold change” value is 0.09.
For the sequence RRIRCRPPRLPRPRPRPKLHPRP, the “shrunken log2 fold change” value is -0.113.
With RRIRKRPPRLPRPRPRPNIKPRP the figure was -0.284; with RRIRGRPPRLPRPRPRPVCYPRP, 0.833.
For RRIRVRPPRLPRPRPRPFEEPRP, the “shrunken log2 fold change” value was -0.000457.
Take RRIRCRPPRLPRPRPRPMKRPRP: the “shrunken log2 fold change” value was -0.176.
In the case of RRIRQRPPRLPRPRPRPSLRPRP, the “shrunken log2 fold change” value was determined as 0.239.
The value for RRIRIRPPRLPRPRPRPAKDPRP was -0.268; that for RRIRCRPPRLPRPRPRPIQMPRP was -0.0491.
With RRIRERPPRLPRPRPRPMHAPRP the figure was 0.262; with RRIRIRPPRLPRPRPRPPKEPRP, -0.0998.
The value for RRIRWRPPRLPRPRPRPVPNPRP was 0.0838; that for RRIRTRPPRLPRPRPRPEIRPRP was -0.0371.
As for RRIRGRPPRLPRPRPRPCYCPRP, the “shrunken log2 fold change” value was -0.164.
With RRIRWRPPRLPRPRPRPFGFPRP the figure was 0.321.
RRIRGRPPRLPRPRPRPDTEPRP: the “shrunken log2 fold change” value was -0.0629.
As to RRIRARPPRLPRPRPRPRTWPRP, the “shrunken log2 fold change” value worked out at 0.669.
As to RRIRMRPPRLPRPRPRPEGGPRP, the “shrunken log2 fold change” value was determined as 1.33.
As to RRIRTRPPRLPRPRPRPISMPRP, the “shrunken log2 fold change” value is -0.262.
With RRIRQRPPRLPRPRPRPFTDPRP the figure was 0.0299; with RRIRERPPRLPRPRPRPVSEPRP, 0.164.
Regarding RRIRERPPRLPRPRPRPHDNPRP, the “shrunken log2 fold change” value is -0.227.
As for RRIRPRPPRLPRPRPRPECKPRP, the “shrunken log2 fold change” value was -0.352.
In the case of RRIRLRPPRLPRPRPRPGSCPRP, the “shrunken log2 fold change” value is 0.0403.
With RRIRRRPPRLPRPRPRPGVHPRP the figure was -0.178; with RRIRQRPPRLPRPRPRPSNDPRP, -0.357.
Take RRIRERPPRLPRPRPRPFEIPRP: the “shrunken log2 fold change” value is -0.203.
RRIRVRPPRLPRPRPRPEGQPRP: the “shrunken log2 fold change” value was 0.197.
With RRIRWRPPRLPRPRPRPIKDPRP the figure was 0.211; with RRIRFRPPRLPRPRPRPYLRPRP, -0.138.
RRIRGRPPRLPRPRPRPIDIPRP: the “shrunken log2 fold change” value was -0.0347.
For RRIRFRPPRLPRPRPRPARRPRP, the “shrunken log2 fold change” value was 0.435.
In the case of RRIRSRPPRLPRPRPRPIFTPRP, the “shrunken log2 fold change” value was -0.275.
Turning to RRIRPRPPRLPRPRPRPDFLPRP, the “shrunken log2 fold change” value is -0.235.
The value for RRIRPRPPRLPRPRPRPSQLPRP was -0.0897.
In the case of RRIRTRPPRLPRPRPRPGIQPRP, the “shrunken log2 fold change” value was 0.131.
The value for RRIRGRPPRLPRPRPRPSIHPRP was 0.162; that for RRIRHRPPRLPRPRPRPFITPRP was -0.799; that for RRIRHRPPRLPRPRPRPIHFPRP was -0.171.
With RRIRQRPPRLPRPRPRPHATPRP the figure was -0.0615.
With RRIRMRPPRLPRPRPRPLFRPRP the figure was 1.44.
As for RRIRVRPPRLPRPRPRPSHWPRP, the “shrunken log2 fold change” value was 0.182.
The value for RRIRPRPPRLPRPRPRPCKMPRP was -0.223; that for RRIRTRPPRLPRPRPRPANTPRP was -0.181.
The value for RRIRARPPRLPRPRPRPKNRPRP was 0.134; that for RRIRVRPPRLPRPRPRPRVGPRP was 0.655.
RRIRSRPPRLPRPRPRPMSKPRP: the “shrunken log2 fold change” value was -0.032.
With RRIRNRPPRLPRPRPRPSHDPRP, the “shrunken log2 fold change” value is -0.516.
The value for RRIRPRPPRLPRPRPRPADTPRP was 0.221.
In the case of RRIRMRPPRLPRPRPRPCCCPRP, the “shrunken log2 fold change” value turned out to be 0.0604.
The value for RRIRHRPPRLPRPRPRPPSHPRP was -0.139.
With RRIRFRPPRLPRPRPRPYWCPRP the figure was -0.399; with RRIRQRPPRLPRPRPRPLFCPRP, 0.213.
With RRIRRRPPRLPRPRPRPDQCPRP the figure was -0.00402; with RRIRMRPPRLPRPRPRPFTKPRP, -0.319.
As to RRIRIRPPRLPRPRPRPEDVPRP, the “shrunken log2 fold change” value is -0.0939.
As to RRIRYRPPRLPRPRPRPCISPRP, the “shrunken log2 fold change” value stood at 0.0212.
With RRIRYRPPRLPRPRPRPSTYPRP the figure was -0.332; with RRIRVRPPRLPRPRPRPEYAPRP, 0.111.
Consider RRIRWRPPRLPRPRPRPNSAPRP, for which the “shrunken log2 fold change” value came to 0.104.
Turning to RRIRDRPPRLPRPRPRPSLHPRP, the “shrunken log2 fold change” value worked out at 0.0986.
Take RRIRFRPPRLPRPRPRPKRYPRP: the “shrunken log2 fold change” value came to 0.0178.
The value for RRIRKRPPRLPRPRPRPPPYPRP was 0.249.
Consider RRIRVRPPRLPRPRPRPVCIPRP, for which the “shrunken log2 fold change” value is -0.0826.
For the sequence RRIRERPPRLPRPRPRPCFKPRP, the “shrunken log2 fold change” value was -0.0311.
For the sequence RRIRKRPPRLPRPRPRPSVSPRP, the “shrunken log2 fold change” value was determined as 0.172.
Regarding RRIRARPPRLPRPRPRPVVTPRP, the “shrunken log2 fold change” value amounted to 0.254.
For RRIRSRPPRLPRPRPRPIASPRP, the “shrunken log2 fold change” value worked out at 0.0102.
With RRIRHRPPRLPRPRPRPFCIPRP the figure was -0.538.
With RRIRVRPPRLPRPRPRPHYSPRP the figure was -0.424; with RRIRERPPRLPRPRPRPIIHPRP, -0.413.
With RRIRCRPPRLPRPRPRPLTCPRP the figure was -0.184; with RRIRCRPPRLPRPRPRPSRIPRP, -0.562.
Take RRIRGRPPRLPRPRPRPIKKPRP: the “shrunken log2 fold change” value is 0.00565.
With RRIRFRPPRLPRPRPRPWCNPRP the figure was -0.267; with RRIRWRPPRLPRPRPRPEMLPRP, 1.17.
With RRIRPRPPRLPRPRPRPMCMPRP, the “shrunken log2 fold change” value was -0.32.
In the case of RRIRSRPPRLPRPRPRPPVYPRP, the “shrunken log2 fold change” value turned out to be 0.0599.
RRIRERPPRLPRPRPRPPQWPRP: the “shrunken log2 fold change” value turned out to be 0.0679.
The value for RRIRQRPPRLPRPRPRPLQTPRP was -0.339; that for RRIRFRPPRLPRPRPRPWYWPRP was -0.34.
Take RRIRFRPPRLPRPRPRPRCAPRP: the “shrunken log2 fold change” value is 0.178.
Consider RRIRARPPRLPRPRPRPHEWPRP, for which the “shrunken log2 fold change” value is 0.311.
On to RRIRNRPPRLPRPRPRPASMPRP, for which the “shrunken log2 fold change” value is -0.064.
With RRIRKRPPRLPRPRPRPMMHPRP the figure was 0.0869.
With RRIRSRPPRLPRPRPRPPHSPRP the figure was 0.113.
Consider RRIRTRPPRLPRPRPRPDDTPRP, for which the “shrunken log2 fold change” value was -0.12.
For the sequence RRIRMRPPRLPRPRPRPTVLPRP, the “shrunken log2 fold change” value was 0.477.
For the sequence RRIRMRPPRLPRPRPRPMLWPRP, the “shrunken log2 fold change” value came out at 0.19.
The value for RRIRWRPPRLPRPRPRPDLHPRP was 0.243; that for RRIRPRPPRLPRPRPRPFHRPRP was -0.0334; that for RRIRWRPPRLPRPRPRPHFLPRP was 1.46.
In the case of RRIRWRPPRLPRPRPRPWKLPRP, the “shrunken log2 fold change” value was -0.00166.
Turning to RRIRTRPPRLPRPRPRPHMCPRP, the “shrunken log2 fold change” value is -0.195.
For RRIRTRPPRLPRPRPRPAHTPRP, the “shrunken log2 fold change” value was 0.09.
With RRIRCRPPRLPRPRPRPQNAPRP the figure was -0.372; with RRIRMRPPRLPRPRPRPIHRPRP, -0.154.
The value for RRIRQRPPRLPRPRPRPVQSPRP was 0.0508; that for RRIRFRPPRLPRPRPRPEGRPRP was -0.145.
The value for RRIRSRPPRLPRPRPRPRIMPRP was -0.105; that for RRIRDRPPRLPRPRPRPHMEPRP was 0.198.
Turning to RRIRPRPPRLPRPRPRPMDEPRP, the “shrunken log2 fold change” value was 0.119.
With RRIRDRPPRLPRPRPRPDQWPRP the figure was 0.396; with RRIRARPPRLPRPRPRPKCNPRP, 0.0681.
Take RRIRARPPRLPRPRPRPVSGPRP: the “shrunken log2 fold change” value worked out at 0.398.
The value for RRIRLRPPRLPRPRPRPGIPPRP was 0.215; that for RRIRFRPPRLPRPRPRPMDVPRP was -0.0444.
Consider RRIRFRPPRLPRPRPRPMVDPRP, for which the “shrunken log2 fold change” value is -0.304.
With RRIRQRPPRLPRPRPRPLYCPRP the figure was -0.672; with RRIRFRPPRLPRPRPRPLVEPRP, -0.0559.
With RRIRQRPPRLPRPRPRPSTSPRP the figure was -0.126; with RRIRARPPRLPRPRPRPVWEPRP, 0.228; with RRIRMRPPRLPRPRPRPAKNPRP, 0.816.
Consider RRIRARPPRLPRPRPRPANIPRP, for which the “shrunken log2 fold change” value was -0.19.

Values taken from the supplement of paper PMC9112550, “Optimization of the antimicrobial peptide Bac7 by deep mutational scanning” (BMC Biology, 2022).
